Data from the DeepSol protein solubility set.

Experiment: soluble on expression in E. coli; label from the status in PepcDB or PDB records

Sequence | soluble on expression in E. coli
MSHSLRYFVTAVSRPGFGEPRYMEVGYVDNTEFVRFDSDAENPRYEPRARWIEQEGPEYWERETRRAKGNEQSFRVDLRTALRYYNQSAGGSHTLQWMAGCDVESDGRLLRGYWQFAYDGCDYIALNEDLKTWTAADMAAQITRRKWEQAGAAERDRAYLEGECVEWLRRYLKNGNATLLRTDPPKAHVTHHRRPEGDVTLRCWALGFYPADITLTWQLNGEELTQEMELVETRPAGDGTFQKWASVVVPLGKEQKYTCHVEHEGLPEPLTLRWGKE | soluble
MSHYGGNPRGNSSHQFGRKDFQQSDSKHIPKITGQPLPNEVQIPFDNMIYETRNPPKFEKQAKFISEYCINYDRKLQLGRMRAKKFHDKLPPNNLSLDLGKGFETFDPKEGDEKIIMLLEWINQMAPEGGRLKKVIHEADVVCWRGLITKICSTIYNKEEGWRIDAIKRKGVIFLCEEKTEQAKNRDLNQTDLDKRMSYWGHKFEQYVTLDDDAEQPDTSSPVTTKEEYAVVFRNDLQTDQRLNPEKRSIGIFYSGEVDCLDRHGNMLELKTQKGELGHGFYKYSKSFKWWLQSSLVNVDHIIVGLRTQEGHVKSLTSLRTREIPQRASWNFRAGFEFLSTIFTYILNCLEKDGDACVIEYRSEMGIHKGIQMRRVPVDEFDFVPNEFLEKFC | not soluble
MSHYQCAVCSSIDANPNSLAVNYQCLADSSVVGEFHVLPRHQGYTDLLHGGIASSLLDGAMTHCLLFRDIQALTAQLDVRYHAPIELDEHVTITAHCEGERRGIYQLVAQLLVNNEVRVTAKGKFIRPKLEHHHHHH | soluble
MSICDPALRNALRTLKLSGMLDTLDARLAQTRNGDLGHLEFLQALREDEIARRESAALTRRLRRAKFEAQATFEDFDFTANPKLPGAMLRDLAALRWLDAGESVILHGPVGVGKTHVAQALVHAVARRGGDVRFAKTSRMLSDLAGGHADRSWGQRIREYTKPLVLILDDFAMREHTAMHADDLYELISDRAITGKPLILTSNRAPNNWYGLFPNPVVAESLLDRLINTSHQILMDGPSYRPRKRPGRTTS | not soluble
MSIKIGLLGFGTVASGIPFLLKENGEKVFAASRDQLEIAKVLVKDDEEKDRLIAAGNDYNFVTNVDEILNDEEIQIVVELMGRIEPARTFITKALEAGKNVVSANKDLIATHGKELIALAQDKGVAFYYEAAVAGGIPILRTLANSLTSDKVTRILGVLNGTSNFMMTKMVDEGWSYEDALKTAQELGYAESDPTNDVEGYDAAYKAVILSQFGFGATIDFDDVSHKGITNISTDDVAVAQELGYVIKLVGDVREVESGISAEVSPTFLPKNHPLASVNDVMNAVFVESIGIGESMYYGPGAGQKPTATSVLADIIRIARRLSDGNVGKPFNEFRRDLPLANPADVKSNYYFALDTPDEKGKILHLSEIFNSEDISFEQVLQQKANGTTARIVVITHAMSKTQLKAVTEKLEAAEDFTVVNTLKVLSNLEHHHHHH | soluble
MSIKPIDFQMMIPKTAEISKIQNDQQQKSVVVNEQQTNITRQKFEENVNTVHARENAEKVRIDSEQKKKKEERGRKKNPNRAKYGTKGEKEPEEQTSVIDIRL | not soluble
MSISISYSTTYSGWTVADYLADWSAYFGDVNHRPGQVVDGSNTGGFNPGPFDGSQYALKSTASDAAFIAGGDLHYTLFSNPSHTLWGKLDSIALGDTLTGGASSGGYALDSQEVSFSNLGLDSPIAQGRDGTVHKVVYGLMSGDSSALQGQIDALLKAVDPSLSINSTFDQLAAAGVAHATPAA | soluble
MSISSDWIVPDWPAPPSVRALSTTRQGGVSTGPYGLAGGLPGGLNLGRHVGDGPDAVTQNRRLLRAVLPAEPAWMEQVHGTVVADLDQPLPAPVVADAAIAASPGRVCVVMTADCLPVLLCDARGVTVGAAHAGWRGLCSGVIEQTVERMTDALRACGQEADPTWLAWLGPAIGPDCFEVGAEVRQAFIDAARPDELPATRAAFAEGAADGKFLADLYALARLRLARAGCRDVHGGGLCTMTDAERFYSYRRDRTTGRMATLIWRAA | soluble
MSIVPGVVHSLYGDAKARWTINEYADLECPFCKVYTPRLKRWVDSHTDVNLVWRHLPLQMHGEAARHQARLVECAGIQGGAKAFWSAIDAIFAQSAGNGGGLPGGTLDFPDLDQARLEKCAKDMDLVDQLIKTDIDTARSNGITATPTLVIQDNQTGRSVKLEGMADETTLLSAIDWLAKDL | not soluble
